Read-outs that look alike come from different tables or passages of the source.
Tests used:
[1] = molecular target: SARS-CoV-2 spike extracellular domain (SARS-CoV-2, UniProt P0DTC2 14-1213); experiment: ELISA
[2] = molecular target: T1, SARS-CoV-2 spike receptor binding domain (RBD) (SARS-CoV-2, UniProt P0DTC2 319-541); experiment: flow
[3] = molecular target: T1, SARS-CoV-2 spike receptor binding …; experiment: flow; remark: listed apart in the source
RBD-VLP = RBD-VLP (SARS-CoV-2, UniProt P0DTC2 340-538)

| Binder | Kd [1] | further results |
| --- | --- | --- |
| FG 12C (antibody, V domains shown) VH: EVQLVESGGGLVQPGRSLRLSCAASGFTFDDYAMHWVRQAPGKGLEWVSGISWNSGSIGYADSVKGRFTISRDNAKNSLYLQMNSLRAEDTALYYCAKDMRVHDYGDYYFDYWGQGTLVTVSS VL: SYELTQPPSVSVAPGKTARITCGGNNIGSKSVHWYQQKPGQAPVLVIYYDSDRPSGIPERFSGSNSGNTATLTISRVEAGDEADYYCQVWDSSSDHPVFGGGTKLTVL | 2.54 nM |  |
| FN 8C (antibody, V domains shown) VH: QVQLVESGGGVVQPGRSLRLSCAASGFTFSSYGMHWVRQAPGKGLEWVAVISYDGSNKYYADTVKGRFTISRDNSKNTLYLQMNSLRAEDTAVYYCARERTYYDILTGYRHYYGMDVWGQGTTVTVSS VL: SYELTQPPSVSVAPGQTARITCGGNNIGSKSVHWYQQKPGQAPVLVVYDDSDRPSGIPERFSGSNSGNTATLTISRVEAGDEADYYCQVWDSSSDHWVFGGGTKLTVL | 63.9 nM |  |
| FD 8B (antibody, V domains shown) VH: EVQLLESGAEVKKPGASVKVSCKVSGYTLTELSMHWVRQAPGKGLEWMGGFDPEDGETIYAQKFQGRVTMTEDTSTDTAYMELSSLRSEDTAVYYCATAAAINCSSTSCYYYYYYYGMDVWGQGTTVTVSS VL: not shown | 10.4 nM |  |
| FD 5D (antibody, V domains shown) VH: EVQLVESGGGLVQPGGSLRLSCAASGFTFSSYSMNWVRQAPGKGLEWVSYISSSSSTIYYADPVKGRFTISRDNAKNSLYLQMNSLRAEDTAVYYCASPGGITAAGTSVLFGYYGMDVWGQGTMVTVSS VL: not shown | 0.58 nM | Kd [2]: 0.93 nM |
| FB 1E (antibody, V domains shown) VH: EVQLVESGAEVKKPGESLKISCQGSGYRFNSYWIAWVRQMPGKGLEWMGSIFPTDSDIRYNPSFQGQVTISADKSISIAYLQWSSLKASDTAIYYCARHWASMVRGVIRASHYYGMDVWGQGTTVTVSS VL: QSVLTQPPSASGSPGQSVTISCSGASSDIGDYNYVSWYQQLPGKAPKLLIYEVTKRPSGVPDRFSGSKSGNTASLTVSGLQADDEADYYCSSYAFGGSDIRVFGGGTKLAVL | 0.41 nM |  |
| FB 9D (antibody, V domains shown) VH: QVQLVESGAEVKKPGESLKISCQGSGYRFNSYWIAWVRQMPGKGLEWMGSIFPTDSDVRYNPSFQGQVTISADKSISFAYLQWSSLKASDTAIYYCARHWASMVRGVIRASHYYGMDVWGQGTTVTVSS VL: QPVLTQPPSASGSPGQSVTISCSGASSDIGKYNYVSWYQQLPGKAPKLLIYEVTKRPSGVPDRFSGSKSGNTASLTVSGLQADDEADYYCSSYAFGGSDTRVFGGGTKLTVL | 0.29 nM |  |
| FD 10A (antibody, V domains shown) VH: EVQLVESGGGLVQPGGSLRLSCAASGFTFSSYWMHWVRQAPGKGLVWVSRINSDGSSTSYADSVKGRFTISRDNAKNTLYLQMNSLRAEDTAVYYCANMAFDIWGQGTMVTVSS VL: not shown | 0.42 nM |  |
| FD 7C (antibody, V domains shown) VH: QLQLQESGPGLVKPSETLSLTCTVSGGSISSYYWSWIRQPPGKGLEWIGYIYYSGSTNYNPSLKSRVTISVDTSKNQFSLKLSSVTAADTAVYYCARDYRFGELFGRFAWFDPWGQGTLVTVSS VL: not shown | 0.18 nM |  |
| FD 11C (antibody, V domains shown) VH: EVQLLESGPGLVKPSETLSLTCTVSGGSISSSSYYWGWIRQPPGKGLEWIGSIYYSGSTYYNPSLKSRVTISVDTSKNQFSLKLSSVTAADTAVYYCAREYYYGSETKKYYYYYGMDVWGQGTTVTVSS VL: not shown | 0.98 nM |  |
| FI 3A (antibody, V domains shown) VH: EVQLLESGGGLIQPGGSLRLSCAASGFTVSSNYMSWVRQAPGKGLEWVSVIYSGGSTYYADSVKGRFTISRDNSKNTLYLQMNSLRAEDTAVYYCARDHVRPGMNIWGQGTMVTVSS VL: not shown | 6.61 nM | Kd [2]: 3.83 nM |
| EZ 7A (antibody, V domains shown) VH: EVQLVESGAEVKKPGESLKISCKGSGYSFTSYWIGWVRQMPGKGLEWMGIIYPGDSDTRYSPSFQGQVTISADKSISTAYLQWSSLKASDTAMYYCARGWVYRGFPYYGMDVWGQGTMVTVSS VL: QSALTQPRSVSGSPGQSVTISCTGTSSDVGGYNYVSWYQQHPGKAPKLMIYDVSKRPSGVPDRFSGSKSGNTASLTISGLQAEDEADYYCCSYAGSYTLVFGGGTKLTVL | 1.08 nM | Kd [2]: 11.4 nM |
| FI 4A (antibody, V domains shown) VH: EVQLVESGGGLVKPGGSLRLSCAASGFTFSRFSMNWVRQAPGKGLEWVSSISSSGSYIYFADSVKGRFTISRDNAKNSLYLQMNSLRAEDTAIYYCATYLFGDSHTYWGQGTLVTVSS VL: QSVLTQPHSVSESPGKTVTISCTGSSGSIASNYVQWYQQRPGSAPTTVIYEDNQRPSGVPDRFSGSIDSSSNSASLTISGLKTEDEADYYCQSYDSSNLHWVFGGGTKLTVL | 0.41 nM | Kd [3]: 7.9 nM |
| FI-1C (antibody, V domains shown) VH: EVQLVESGGGLVKPGGSLRLSCAASGFTFSDYYMSWIRQAPGKGLEWVSYISSSGSTIYYADSVKGRFTISRDNAKNSLYLQMNSLRAEDTAVYYCARRSNRFLIAFDIWGQGTMVTVSS VL: QSALTQPASVSGSPGQTITISCTGTSSDVGGYNYVSWYQQHPGKAPKLMIYEVSNRPSGVSNRFSGSKSGNTASLTISGLQAEDEADYYCSSYTSSSTLVVFGGGTKLTVP |  | IC50 (RBD-VLP): 23 nM |
| FI 1C (antibody, V domains shown) VH: EVQLVESGGGLVKPGGSLRLSCAASGFTFSDYYMSWIRQAPGKGLEWVSYISSSGSTIYYADSVKGRFTISRDNAKNSLYLQMNSLRAEDTAVYYCARRSNRFLIAFDIWGQGTMVTVSS VL: QSALTQPASVSGSPGQTITISCTGTSSDVGGYNYVSWYQQHPGKAPKLMIYEVSNRPSGVSNRFSGSKSGNTASLTISGLQAEDEADYYCSSYTSSSTLVVFGGGTKLTVP | 1.18 nM | Kd [3]: 12.2 nM |
| FD 7D (antibody, V domains shown) VH: EVQLVESGAEVKKPGESLRISCKGSGYSFTSYWISWVRQMPGKGLEWMGRIDPSDSYTNYSPSFQGHVTISADKSISTAYLQWSSLKASDTAMYYCARHSDCSSTSCYFVDAFDIWGQGTMVTVSS VL: not shown | 64 nM |  |
| FD 11A (antibody, V domains shown) VH: EVQLVESGGGVVQPGRSLRLSCAASGFTFSSYGMHWVRQAPGKGLEWVAVIWYDGSNKYYADSVKGRFTISRDNSKNTLYLQMNSLRAEDTAVYYCAKGPDILTGYYNYYYYGMDVWGQGTMVTVSS VL: QSVLTQPPSVSGAPGQRVTISCTGSSSNIGAGYDVHWYQQLPGTAPKLLIYGNSNRPSGVPDRFSGSKSGTSASLAITGLQAEDEADYYCQSYDSSLSGFYVVFGGGTKLTVL | 0.4 nM | Kd [3]: 0.75 nM |
| FJ 10B (antibody, V domains shown) VH: QVQLVQSGAEVKKPGESLRISCKGSGYSFTSYWISWVRQMPGKGLEWMGRIDPSDSYTNYSPSFQGHVTISADKSISTAYLQWSSLKASDTAMYYCARLDPRYGPDYYGMDVWGQGTTVTVSS VL: AIRMTQSPSSLSASVGDRVTITCRASQSISSYLNWYQQKPGKAPKLLIHAASSLQSGVPSRFSGSGSGTDFTLTMSSLQPEDFATYYCQQSYSTPLTFGGGTKVEIR | 7.57 nM | Kd [2]: 3.73 nM |
| FN 12A (antibody, V domains shown) VH: QVQLVQSGAEVKKPGSSVKVSCKASGGTFSSYAISWVRQAPGQGLEWMGRIIPILGIANYAQKFQGRVTITADKSTSTAYMELSSLRSEDTAVYYCARSGCSSTSCPSNLYYYYYGMDVWGQGTTVTVSS VL: QSVLTQPPSVSAAPGQKVTISCSGSSSNIGNNYVSWYQQLPGTAPKLLIYDNNKRPSGIPDRFSGSKSGTSATLGITGLQTGDEADYYCGTWDSSLSALVFGGGTKLTVL | 0.38 nM | Kd [3]: 1.12 nM |
| FN 2C (antibody, V domains shown) VH: EVQLLESGGGVVQPGRSLRLSCAASGFNFNNYGMHWVRQAPGKGLEWVATISYEGSKKFYVDSVKGRFTISKDNSKNTLYLQMNSLRVDDTAFYYCAKRREIFWLGEPPLSDAFDFWGQGTMVTVSS VL: QSVLTQPPSVSGAPGQRVTISCTGSGSNIGAGYDVHWYQFLPGTAPQLLIYGNNNRPSGVPDRFSGSKSGTSASLAITGLQAEDEADYYCQSYDSSLSGSVFGGGTKLTVL | 0.3 nM |  |
| FD 1E (antibody, V domains shown) VH: EVQLLESGGGLVKPGGSLRLSCAASGFTFSSYSMNWVRQAPGKGLEWVSSISSSSSYIYYADSVKGRFTISRDNAKNSLYLQMNSLRAEDTAVYYCASLAAAGPETYYYYGMDVWGQGTMVTVSS VL: not shown | 20.5 nM |  |
| FD 11E (antibody, V domains shown) VH: EVQLVESGGGLVKPGGSLRLSCAASGFTFSSYSMNWVRQAPGKGLEWVSSISSSSSYIYYADSVKGRFTISRDNAKNSLYLQMNSLRAEDTAVYYCASLAAAGPETYYYYGMDVWGQGTMVTVSS VL: not shown | 19.5 nM |  |
| FJ 1C (antibody, V domains shown) VH: QVQLQESGPGLVKPSETLSLTCTVSGYSISSGYYWGWIRQPPGKGLEWIGSIYHSGSTYYNPSLKSRVTISVDTSKNQFSLKLSSVTAADTAVYYCARDKALLWFGELFTNLFDYWGQGTLVTVSS VL: QSALTQPASVSGSPGQSITISCTGTSSDVGGYNYVSWYQQHPGKAPKLMIYEVSNRPSGVSNRFSGSKSGNTASLTISGLQAEDEANYYCSSYTSSSTLVFGGGTKLTVL | 0.57 nM |  |
| FM 7B (antibody, V domains shown) VH: EVQLVQSGAEVKKPGASVKVSCKASGYTFTSYAMHWVRQAPGQRLEWMGWINTGNGNTKYSQKFQGRVTITRDTSASTAYMELSSLRSEDTAVYYCARDPTYCSSTSCYPFSWFDPWGQGTLVTVSS VL: NFMLTQPPSVSVAPGQTARITCGGNNIGSKSVHWYQQKPGQAPVLVVYDDSDRPSGIPERFSGSNSGNTATLTISRVEAGDEADYYCQVWDSTGDHSWVFGGGTKLTVL | 0.51 nM | Kd [3]: 0.64 nM |
| FD 11D (antibody, V domains shown) VH: EVQLVESGGGVVQPGRSLRLSCAASGFTFSSYGMHWVRQAPGKGLEWVAVISYDGSNKYYADSVKGRFTISRDNSKNTLYLQMNSLRAEDTAVYYCAKEGAGSGWYRHHKPGYYFDYWGQGTLVTVSS VL: not shown | 3.54 nM |  |

From patent US20230279079A1 (published 2023)
